# Measurements: IntAct's records for PubMed 22407295
# B1: mRNA-decapping enzyme-like protein (Arabidopsis thaliana (Mouse-ear cress)), Q9SJF3 (parent)
# chain: MSQNGKIIPNLDQNSTRLLNLTVLQRIDPYIEEILITAAHVTFYEFNIELSQWSRKDVEGSLFVVKRSTQPRFQFIVMNRRNTDNLVENLLGDFEYEVQGPYLLYRNASQEVNGIWFYNKRECEEVATLFNRILSAYSKVNQKPKASSSKSEFEELEAKPTMAVMDGPLEPSSTARDAPDDPAFVNFFSSTMNLGNTASGSASGPYQSSAIPHQPHQPHQPTIAPPVAAAAPPQIQSPPPLQSSSPLMTLFDNNPEVISSNSNIHTDLVTPSFFGPPRMMAQPHLIPGVSMPTAPPLNPNNASHQQRSYGTPVLQPFPPPTPPPSLAPAPTGPVISRDKVKEALLSLLQEDEFIDKITRTLQNALQQ
# partner: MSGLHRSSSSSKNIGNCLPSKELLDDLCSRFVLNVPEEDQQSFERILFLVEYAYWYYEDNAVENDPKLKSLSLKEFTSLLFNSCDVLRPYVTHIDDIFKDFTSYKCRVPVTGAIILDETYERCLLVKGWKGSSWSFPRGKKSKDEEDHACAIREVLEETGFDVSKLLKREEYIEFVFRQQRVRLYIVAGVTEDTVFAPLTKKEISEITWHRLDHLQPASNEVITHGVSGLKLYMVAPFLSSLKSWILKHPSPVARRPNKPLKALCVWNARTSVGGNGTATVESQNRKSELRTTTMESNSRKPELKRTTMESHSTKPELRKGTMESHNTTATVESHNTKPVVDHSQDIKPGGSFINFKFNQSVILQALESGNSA
# Variants of: B1
# Conditions: with dcp2_arath DCP2, Q8GW31
row,Variant,effect of a mutation on the interaction
1,S237D,increasing interaction
